Measured values from paper PMC3278721 (Molecular Cell, 2012).
Blank lines part the entries; values can stand above or below the binder they belong to.

What was measured:
[1] = target: T1, Maltose Binding Protein fused to ROS1 full-length (MBP-ROS1) (Arabidopsis, UniProt Q9SJQ6 1-1393); experiment: pull-down
T1 sequence (looked up): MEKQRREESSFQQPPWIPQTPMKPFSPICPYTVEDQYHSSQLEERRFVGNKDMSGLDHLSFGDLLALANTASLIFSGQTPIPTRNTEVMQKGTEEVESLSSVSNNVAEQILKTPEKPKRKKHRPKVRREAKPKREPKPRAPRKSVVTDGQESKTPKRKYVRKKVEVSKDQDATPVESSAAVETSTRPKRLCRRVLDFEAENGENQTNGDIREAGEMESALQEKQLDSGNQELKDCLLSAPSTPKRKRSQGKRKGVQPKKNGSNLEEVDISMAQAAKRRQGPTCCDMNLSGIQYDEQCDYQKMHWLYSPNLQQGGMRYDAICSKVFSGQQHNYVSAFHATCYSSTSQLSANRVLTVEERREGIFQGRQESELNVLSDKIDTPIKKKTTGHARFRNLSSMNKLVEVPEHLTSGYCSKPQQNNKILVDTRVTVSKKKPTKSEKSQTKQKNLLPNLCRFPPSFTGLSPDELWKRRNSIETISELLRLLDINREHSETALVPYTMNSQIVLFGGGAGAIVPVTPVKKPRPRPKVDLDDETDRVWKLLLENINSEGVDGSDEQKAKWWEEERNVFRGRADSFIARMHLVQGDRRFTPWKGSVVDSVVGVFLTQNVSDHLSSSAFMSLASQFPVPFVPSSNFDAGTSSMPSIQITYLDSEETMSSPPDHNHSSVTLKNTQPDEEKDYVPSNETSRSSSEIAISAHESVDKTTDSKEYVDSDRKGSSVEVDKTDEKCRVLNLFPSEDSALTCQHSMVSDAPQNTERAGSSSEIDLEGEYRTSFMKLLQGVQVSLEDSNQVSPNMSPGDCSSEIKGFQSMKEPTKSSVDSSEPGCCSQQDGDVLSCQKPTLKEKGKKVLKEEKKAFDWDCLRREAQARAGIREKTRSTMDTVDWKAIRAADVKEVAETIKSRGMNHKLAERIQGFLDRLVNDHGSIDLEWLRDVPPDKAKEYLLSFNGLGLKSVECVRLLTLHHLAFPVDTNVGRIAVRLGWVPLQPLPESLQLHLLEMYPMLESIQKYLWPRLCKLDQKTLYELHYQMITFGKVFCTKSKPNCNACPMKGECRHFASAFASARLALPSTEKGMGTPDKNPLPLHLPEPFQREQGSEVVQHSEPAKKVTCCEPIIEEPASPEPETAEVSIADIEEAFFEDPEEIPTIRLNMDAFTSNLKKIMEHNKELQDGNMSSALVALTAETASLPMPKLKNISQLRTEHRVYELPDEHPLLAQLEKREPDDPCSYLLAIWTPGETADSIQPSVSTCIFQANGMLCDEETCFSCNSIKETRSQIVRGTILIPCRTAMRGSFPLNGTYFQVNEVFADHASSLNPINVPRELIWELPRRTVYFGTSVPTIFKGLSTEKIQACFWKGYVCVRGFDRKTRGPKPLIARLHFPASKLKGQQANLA

[2] = target: T2, Purified full-length ROS1 fused to His6-tag (FL-ROS1) (Arabidopsis, UniProt Q9SJQ6 1-1393); experiment: pull-down
T2 sequence (looked up): T1 sequence (looked up)

- binding result [1]: binds
B1: His-tagged ZDP (Arabidopsis thaliana zinc finger DNA 3'-phosphoesterase) (enzyme, UniProt Q84JE8 1-694, looked up)
chain: MITVAPFVSLRFQFPLYIINRSTLFFRERTQYLVYNTCHILRTTAKTMPVVAEYAKSNRSSCRSCSNKIAVKSLRLGLISKGRGGVDMTRWHHFDCFPTDSESIASVDDIQGLSALEKEDQDALTKLVEQCGKVPAKKPDEKKGKAKKHIMGPKGLTKAATSSKVIADNAKSSRSSCNRCSQTIVSKDLRVGLVTEDSRGFDITRWHHLGCFPIDFHPIDSVEDIGGYSSLEKGDQMELKYLAEVNKKDKTLIDDVQKMDEGDDEAIADNELTEETKKGKHSPVAKLVEQPGEPAKEDEDEESKKPASDEISEQKTKDVKNSPDSSKVISEYAKSSRSTCKKCSQTIAAKELRLGLVTRNFRGFDMKQWHHLGCFPVDSDPIVSVEDIGGFSELQSGDQDALKELVQQCGKQTLVDKMDEDNDDTEAKIKLTEETNKRKHSEVGEMVEEDESLTKAKQQMAKTHKVNMSESTSQVEVEAEITLSASDVKDKYRDANLLPKWKAFETVIFLERDDGLNDSEKIAAFDFDGCLAKTSVKIVGADAWSLMYPSIPEKLQSLHDQGYKLVIFTNESNIDRWKNKRQAAVDSKIGRLNSFIERVKVPIQVFIACGVSSSGGKGGKDDLYRKPKAGMWQLMKKHFNSGIAIDMDKSFYVGDAAGRKMDHSDADIKFAQASGLKFFTPEEYFIPSSTSPGT

- binding result [2]: binds
B2: MBP-ZDP (enzyme, Arabidopsis thaliana, UniProt Q84JE8 1-694, looked up)
chain: B1 chain
